According to publication PMC7472727, “Novel Escherichia coli RNA Polymerase Binding Protein Encoded by Bacteriophage T5”:

Target: RNAP holoenzyme with [211Cys-TMR] sigma70 (RNAP beacon);gpT5.026 (Escherichia coli;Escherichia phage T5, UniProt P0A7Z4;P0A8V2;P0A8T7;P0A800;P00579;Q6QGR1 1-329;1-1342;1-1407;2-91;1-613;1-153, S211C|)
Assay: fluorescence RNAP beacon titration; 100 nM gpT5.026 preincubated 15 min; 40 mM Tris-HCl pH 8.0, 100 mM NaCl, 5% glycerol, 1 mM DTT, 10 mM MgCl2, 0.02% Tween 20, 25 C; 1 nM labeled RNAP holoenzyme
Details: protein: recombinant;recombinant; chain copies: 2;1;1;1;1;1

B1: [-38/-12] upstream double-stranded probe (dsDNA)
DNA 1: TATTTGACATCAGGAAAATTTTTTGGT
DNA 2: ACCAAAAAATTTTCCTGATGTCAAATA
  binding signal: ~3 fold higher affinity than without gpT5.026
